Measured values: the NTF2 design screens of Basanta et al. (2020)

Test: protease stability score; higher = more stable; yeast display proteolysis, trypsin and chymotrypsin;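 also: relative to predicted unfolded state with 0 unfolded-like and 1 meaning tenfold more protease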

| Sequence | protease stability score |
| --- | --- |
| DEVEHHMKTITDRLLTAIETGDEDEWERLLDPRVRVDIGDKHIHGREDYNRKFRERGFEIKRWEMKDMDVINGQIRIDGHRKIHIDGVTTRNTVHIIIVVYNGRVKHFEHRHE | 0.578 |
| DEVEHIVRWMVELLMRALQTGDEETLTRLMDPHARHEIDGKESHGREFLDTLKRRFKNIQWHSIEIEDYKHYDGRVEIHGILHVRVGDKRHEIHIEFVIQKIDGRWHVDRLHLK | 1.55 |
| DEVEHLLELMFRLIIETIRTGDEKLLEHLVDPNAKSLIDGRDYHGREMARHWHNRVDHLNDVHINDRKVQGEKIELDVRVDGRVGDKRIDERVHIIAFKINGQWIIHKMEVR | 0.991 |
| DEVEKFSRDMLHFVRHLWETGDPHLFSRLADPHAQVHIGDKRLHGREEFEKHIEEMIERFPGIRLNLRHFEVQGDKMLVNFEIRVGEKNFTIHLEARKINGRWYIESVEVR | 0.894 |
| DEVEKHLVHLTHRWIHSLLTGDEETISELLDPHARFNQGEWHHHGRELELRYWKEIRFKEMRISRYTAQGDKYHLDTELKGQVDGKEVRVRTHVHLVWVNGRAQSIYVEIH | 1.02 |
| DEVEKIVYDFLQRHIEHLLTGDEDSFTHNLDPHVRIHIDGQRLIGREDARREVRRLGFDHVEITKIEHQGEKLIVHGTMIINGQEIHLTIYIWKINGRWVVQSIEIK | 0.706 |
| DEVEKSVKEWVNIVIHWLKTGNEEEILKYADPNVRLNVNGVNYVGRENAEHASREHLHELGIKHEEQKDVKIHSINGRMLLIIHMRLEYDGQHHEVTIIVRTIKINGRWHIHEVEIRND | 1.21 |
| DEVERDSELALREFYHAFRTGDEHTLVDLADPRTLTIWNGVELHGREEMKRLWHKVKNITVHDHHIDHERLIGNFVYMDVTIDGTFNGRRYRVRSHMVILKINGKWLYEKQHYE | 1.16 |
| DEVERHLKEIFKDLERALNTGDEDRFEHLMDPHARYDVNGVEFIGMRWFRKLVKEIRIRHVDMRLEDVRHVGDFVKMITRIHIEVDINGKNDERETRTILIMHKIDGRWEIKEVIFL | 1.38 |
| DEVERWAKEIAELFLKLYLTGNWKNLERLLDPHMQFIIDGVRIHGREEMREFIRHEREFFKGMRHEITDSHVDVQGEKVEVHLHIEVIVNGQKHVRHINLHIEKIDGQWLIKLVIIHHE | 1.26 |
| DEVHEEAERASEHFFESLLTGDEKSTESFIDPHAKMEFSFNGRNYDMIGRMWVEIEHRLLGIDHYIHKDNRTHSQGEKLLLIIHGRIRVGDKEFDVELHVIMMKIDGQWNVKRLEVRVK | 1.25 |
| DEVIEELERFHRTYQHAVHTGDEETHADLMDPNVRIHIGDKHIHGREWLIELVHRLGFKHSKEHWIIRRYDLQGNKVDEDGEVKRILNINGVLEHEERRVRIIILKIDGKWIIHSMHIR | 0.433 |
| DEVKEDTRRFFERIERALKTGDEDELKRMMDPHVQIHAENHEFHGREALRHFLERYDVVRDIKINDWRIINGRIQIDGEVEGVFNGRDKETHTIMILLKINGKWVITSLTIN | 2.09 |
| DEVKKETDEFSEKFRHALLTGDEEEIEKMADPHVKVDIDGREHHGREEWSEIYREWIHKRGVRIKHIRDHEVRIINGRAIIDQRVHGIVNGQETTLEMHFTTTKIDGRWILTEVFVK | 1.42 |
| DEVKKFLDELLEILRKYSETGDEDSYTEMFDPNTRLLFEGRKFVGREEAIKFLRRVDVFSIKNFTMRHVETQGDWLHIDGEVLLLIIFNGKTFELKTKITFIMLKIDGRWILHAEEIR | 1.71 |
| DEVQRDAEEFWRLLVEALVTGDEDLWRKLADPHMRLDVNGVEIHGMEHYLKRIIEEMRRLGVELKDFRLHDVDIQGNKMHLKTHIDGRVNGQKNTRREEYVITKIDGRWQLESIKVH | 2.04 |
| DEVTEIAERFLEEFIQHHETGDEDRIRHLMDPHVRLTQGDKTLHGREEASRVVIELAKRIDHLHIKLTTIRVQGEKVYIHTELRMEVGDKELRFHVTFIFLKVNGRWRMHSVHIE | 1.06 |
| DEWDEHLEHVAKLIIELLLTGDEETLSRLADPHTRLEWNGRETHGRENMQETLIKILKEIWIHDIRIRHVRTQGDKAHVEGEQDGIINGVRRILDVRILIVVFNGRLRSLRFQID | 0.693 |
| DEWDEKLHHFFELMSHAMETGDEHMQDELADPHVRLIINGVDYIGRERFREMVKRVDYFSVRDIHFKDKEIQGDFIHFRGTLNGEEIINGVRIEKEVDFKLLILKVDGRWFLESEERR | 0.668 |
| DEWDEMLHEWAERIIKHFITGDWESFVKMADPHVRLHVDGKDFIGRERMEEAFKELLERLGVDHVELHHVRVINGQNDVDEDVKVGNKRLKVIHHLVVYNGRIKSIEIETR | 1.39 |
| DEWDNAREELKRMLFKLLETGDEDSFKRLIDPDARQHIDGQEIHGRERVYEIFYRIKNMTVHHIEDKHYEIVNGQIHSDVRIDMIVNGKRITLNIRVVMIKIDGKWYLHSEKIS | 1.6 |
| DEWEEFVKRFLEAHVKANRTGDERLLQELIDPHVRIEFNGVELHGREIFTETISQLRIKDVNLRRYHMYDGQVEIHGELHGVFNGQEKDTKIHVREIKVDGRWKMKEYSIH | 0.994 |
| DEWEELIEETAENIIRFIETGDEDFFRTFADPHMRFIYDQGDFRLIDHGREKVSEWLIRFLQEMRIIFIIEDVKVQGDKAHSQGRIHVNINGQRHEFNSRVIVVWVNGRLKYFRMSVR | 1.43 |
| DEWEESHKLVSKMIADTDETGDERIKRRLLDPHARLIVDGREYHGREHMDKIWKYFGLDRIHVEVRRMHVYGDKVSLHVHSIYNGREVEVHIIIHKVDGRWHLHSVDIQ | 0.596 |
| DEWEETAKKATKDQLRDVATGDEDSHESLLDPNVKLQVGDKTFHGREEIHRWLREFLNKIPNIRLEVKEIHTQGDFVILDMKMDIDGREIHVRIVMIKVDGRWFVNKLIII | 0.615 |

| Sequence | protease stability score |
| --- | --- |
| DEWEEWLKAILEELRRISHTGDEDEIINNADPNVKIKIGDKLIIGREEFRRIMLELSKHFGITRFEFELHDRRIVGDKIHLDGTSRFNGVDERTTLIIMKVNGRWILRSMHVE | 1.41 |
| DEWEKDARDFTRILLEIFKTGDEKSITELLDPNARVEYGDKEMHGMHLMSRILLKDAKEIRVDHMRLRSIDVYNGVLHVNMEVDGTIDGRRDTYRLHVHTHKFDGRWRVENLIIR | 1.06 |
| DEWEKLYEIALEIFLEVFKTGNEEMFLKQADPHVRLDVGDKHYHGREHVVKFLIDELKRVKNLKVSSEHESFVGDYAHMHIDLDIDGRRVDVEIVSLKVDGKWVLREVRLH | 1.34 |
| DEWERLTEVMIRIFEEIVHTGDERVWEEMADPHVKVHIDGVHFHGREDLLYLLRKMGANVFDLKRSDIQGEKVYLDIQTEFNGQKRDSRFLIVKFNGRWLLESISIH | 1.47 |
| DEWHELANEIMQLLIELWLTGDEEIVLKLADPNVKVKIIVNGRTYSNHGREMFHDWHRRVDYIHEIRIKDVTFVNGVVISDTHVDGTINGVRMRTDTKMIVVVVNGKLKSAEYRVE | 1.11 |
| DEWHEYNEKLFELWEKANKTGDERLLRLLIDPHARLHFNGKHFHGREEVARLMTELRVDRFEIKRMEIQGEKLTVEGREDVTQGDFRFESNVNIIFLKINGRWSLERQHSE | 0.944 |
| DEWKEDSRRAIELELRHLQTGDEDLTEKYADPHARVHIGDKEFHGRDHYIETLRRMGIKHVEVREIREQGDFLKMDVHVNVDGRELTVHFVMRKVNGRWRIHMIEVR | 1.11 |
| DEWKRLALEVLRLWEEFMSTGDEKSVEELADPNVRILYDGVQLHGMDEVRRHLKELREHSHHVEIRRATVIDGRVHVDGTLDVTIEIGDKKIREEIRVKIHIIKVNGKWFVHSVEFR | 1.49 |
| DEWLEIAHRFVEELVRSLLTGDEDTLTKLIDPNVRLNINGQEVVGMTEVNRAWHELRIEDEHIRRIDVQGDYVRIHSQRRGEVNGVHTEFEVVIIISKFDGRWVIKSEHVH | 1.24 |
| DEWLEMAMRIIFRYLLLLATGDEDIVNHYMDPNVKIDVNGREEHGRERALEQLEEIRRQYPGLTLTHLHIEDLKVVGNYVRVDGYVEGRIDGRRIELKTEFIILKINGRWRMHSVKEH | 1.74 |
| DEWREHMEKLADDFSHAMLTGNEESMDKFLDPHTRSIVNGVERHGREAFRIWINQIDHIRDVEFRHVDTQGNKIRSHTRFHGEVNGRRYIVEIEVILHVIDGRVKSVEIRNL | 1.38 |
| DEWTEDVREALHLIKHSIETGDPRLIEELADPNVRVLYGNKVYHGREKLSDLVTEWRTTHVDFHHVRVIGDKIDIDVIIRSEYNGRVVDLKEKIVATKINGKWILHSRNIH | 0.531 |
| DEWTHVLHEMLKLLLDAWDTGDEKVLHRMMDPNAKSEINGREFVGMHHISTWLKRERDRLGVEIHIHVRRINFQGDKLEVDSHFNVIIGDKEFHRSTRIELIIVNGRVHSLHIKID | 0.212 |
| DEYDHIAKLMVKLWLEWYLTGDEDYFNHYADPEVRSEVGDKRFHGRELFMRYIWEHHRERGVEIEIIVRRVEVQGEKAEVDGELIVRQGDKEHRLRVHIELKVVNGVLKKIRIEFR | 0.561 |
| DEYEREYKKFIDDMLHAWLTGDEDTLQELVDPNARLHFNGQELHGRDIWLRNYREHGMKVKSYHIEHREIQGEKIIIRGRLNGHVNGRNSNMDIILIIEKVDGRWVMQDIRIS | 1.98 |
| DEYERIWRDLVKLILHAHKTGDEDHLKRLMDPNAKIHVGEFEMIGRTDEELWKRLLGIERFHIHRIDIRTISIFDGRLHIEVDSDGQINGKRVEHHIEITLVIIDGKLHSVSHTLK | 1.1 |
| DEYKRDADEVIRLWAEAMETGDEKLFLELFDPDTRSIFNGVELHGRQDIEMWRNRYDHVRHVRTEVEDSHIYNGRVEDHVRLILDVEVNGQREHHSHEILVYSVKFDGRWHFTMVEIR | 0.607 |
| DEYREEARKLMHDTAKHLHTGDEDMTNHYLDPNVKIQINGQEIHGMDKFEHDSRRFKGAKNDVRFELRLIQVIGDKVRIDGELYVRIRVGDKEYSFEVKVDIVVTKVDGVWKIKEIKIE | 0.806 |
| DEYWHHMKKSFEDLHDARHTGDERFVMEMLDPNVRFDINGVEFIGREDWRRHLQELGVDHEEIILHDYHIFNGRVELDVRTVHHIGDYELRRDEHMDLRKVNGRWHIKEIRVR | 0.209 |
| DHDDEESKHWLEFYLEIVQTGDEDSHKRLADPNTRLHIDGQVMHGREFMTMWFRHLVSKFKNARVEIRLRDTRKINGRVELDVELIFRVGDKEERREVQIFADKVDGRWHIKEFVVH | 2.22 |
| DHDDEMLEHFMNLWLHAVATGDEELLSNLLDPNVREIINGKTIHGREEFLKLYHELARRIDHIHIRVRWYDMQGEFLISKTEIEFRFNGVNLKFETKMIVLKINGKWILHSIRFE | 1.26 |
| DHDDERVEHFARHWVHNFLTGDWKKLTDQVDPHVRLDVNGQKFHGREAIREWLEHILREIRVHDLKFDHIHLQGDYTIIEGTQIIHYNGRTEIRKTRIEFIIVDGKFQEIRIKTL | 1.43 |
| DHDDHMREHLIELFIRWTTTGDFDELLRLVDPNARFDVNGREIHGWDVFMKMYEDTRHLLGADHAEVRNKDERFQGDKVTITIEVTIEVGDKEHREERELYVRKVDGKWTMKSLKIR | 0.703 |
| DHDEHDADRAVKWFLEDLRTGDEQLNERQADPHVRNDFNGVEIHGREEFLKHLSKLSNELGIKHLHVRHHRVYDGRLELHIELRFDGKTITLIIIKLKVNGRWYVESMHVH | 0.128 |
| DHDEKRVREILELFLNAITTGDEETLRHLLDPNVKTDINGVELHGWKDILHHLMEMRIHVRHYETRHLNKIGEYLHLEVHVYGEHHFDGRTREDTYYVNVIILKVNGRWHLHQFSVH | 1.39 |
